Experimental data taken from US20240294646A1.

Assays:
[1] = molecular target: FcγRIIaR, soluble extracellular domain (UniProt P12318); assay: SPR; fold change in affinity over control v27293 (Strategy 1 Launching Module)
[2] = molecular target: FcγRIIb, soluble extracellular domain (UniProt P31994); assay: as above
[3] = molecular target: FcγRIIb, soluble extracellular domain (UniProt P31994); assay: SPR; IIb-Fold/IIaR-Fold (FcγRIIb against FcγRIIaR), vs. wild-type v16463
[4] = molecular target: FcγRIIaR, soluble extracellular domain (UniProt P12318); assay: SPR (General Methods Protocol 2): one-armed antibody captured on immobilised HER2, soluble receptor as analyte
[5] = molecular target: FcγRIIb, soluble extracellular domain (UniProt P31994); assay: as above
[6] = molecular target: FcγRIIaR, soluble extracellular domain (UniProt P12318); assay: SPR; fold change in affinity over wild-type v16463
[7] = molecular target: FcγRIIb, soluble extracellular domain (UniProt P31994); assay: SPR; fold change in affinity over wild-type v16463
[8] = molecular target: FcγRIIb, soluble extracellular domain (UniProt P31994); assay: SPR; IIb-Fold/IIaR-Fold (FcγRIIb against FcγRIIaR), relative to control v27293
[9] = molecular target: FcγRIIaR, soluble extracellular domain (UniProt P12318); assay: SPR, Protocol 2; the wild-type reference itself
[10] = molecular target: FcγRIIb, soluble extracellular domain (UniProt P31994); assay: SPR, Protocol 2; the wild-type reference itself
[11] = molecular target: FcγRIIb, soluble extracellular domain (UniProt P31994); assay: SPR, Protocol 2; ratio of the fold on FcγRIIb to the fold on FcγRIIaR; the wild-type reference itself
[12] = molecular target: FcγRIIaR, soluble extracellular domain (UniProt P12318); assay: SPR, Protocol 2; fold over wild-type v16463
[13] = molecular target: FcγRIIb, soluble extracellular domain (UniProt P31994); assay: SPR, Protocol 2; fold over wild-type v16463
[14] = molecular target: FcγRIIb, soluble extracellular domain (UniProt P31994); assay: SPR, Protocol 2; ratio of the fold on FcγRIIb to the fold on FcγRIIaR
[15] = molecular target: Soluble FcγRIIb extracellular domain with C-terminal 10xHis tag (UniProt P31994); assay: SPR (Biacore 4000); variant captured on HER2, receptor in solution
[16] = molecular target: Soluble FcγRIIaR extracellular domain with C-terminal 10xHis tag (UniProt P12318); assay: as above
[17] = molecular target: Soluble FcγRIIb extracellular domain with C-terminal 10xHis tag (UniProt P31994); assay: SPR; IIb-Fold / IIaR-Fold (FcγRIIb against FcγRIIaR)
[18] = molecular target: Soluble FcγRIIb extracellular domain with C-terminal 10xHis tag (UniProt P31994); assay: SPR; IIb selectivity relative to control v27293
[19] = molecular target: Soluble FcγRIIb extracellular domain with C-terminal 10xHis tag (UniProt P31994); assay: SPR; KD of WT v16463 / KD of variant
[20] = molecular target: Soluble FcγRIIaR extracellular domain with C-terminal 10xHis tag (UniProt P12318); assay: SPR; KD of WT v16463 / KD of variant
[21] = molecular target: Soluble FcγRIIb extracellular domain with C-terminal 10xHis tag (UniProt P31994); assay: SPR; fold affinity relative to control v27293
[22] = molecular target: Soluble FcγRIIaR extracellular domain with C-terminal 10xHis tag (UniProt P12318); assay: SPR; fold affinity relative to control v27293
[23] = molecular target: FcγRIIb, soluble extracellular domain (UniProt P31994); assay: SPR; IIb-Fold/IIaR-Fold (FcγRIIb over FcγRIIaR, vs WT v16463)
[24] = molecular target: FcγRIIaR, soluble extracellular domain (UniProt P12318); assay: SPR; fold change in FcγRIIaR affinity over WT v16463
[25] = molecular target: FcγRIIaR, soluble extracellular domain (UniProt P12318); assay: SPR; FcγRIIaR affinity fold relative to control v27294
[26] = molecular target: FcγRIIb, soluble extracellular domain (UniProt P31994); assay: SPR; FcγRIIb affinity fold relative to control v27294
[27] = molecular target: FcγRIIb, soluble extracellular domain (UniProt P31994); assay: SPR; IIb-Fold/IIaR-Fold relative to control v27294
[28] = molecular target: FcγRIIb, soluble extracellular domain (UniProt P31994); assay: SPR; fold change in FcγRIIb affinity over WT v16463
[29] = molecular target: FcγRIIaR, soluble extracellular domain (UniProt P12318); assay: SPR (Biacore 4000, Protocol 2): antibody captured on immobilised HER2, soluble receptor as analyte
[30] = molecular target: FcγRIIb, soluble extracellular domain (UniProt P31994); assay: as above
FcγRIIaR [31] = molecular target: FcγRIIaR (UniProt P12318); assay: SPR imaging (IBIS MX96), antibody spotted on chip, soluble receptor as analyte, kinetic fit, 25 C, pH 7.4
FcγRIIb [32] = molecular target: FcγRIIb (UniProt P31994); assay: as above
FcγRIIb [33] = molecular target: FcγRIIb (UniProt P31994); assay: derived from the SPRi KDs for FcγRIIb and FcγRIIaR, relative to WT
FcγRIIaR [34] = molecular target: FcγRIIaR (UniProt P12318); assay: SPR (Biacore 4000, Protocol 2), one-armed antibody captured on immobilised HER2, soluble FcγR as analyte
FcγRIIb [35] = molecular target: FcγRIIb (UniProt P31994); assay: as above
[36] = molecular target: Soluble FcγRIIb extracellular domain with C-terminal 10×His tag (UniProt P31994); assay: SPR (Biacore 4000), antibody captured on immobilised HER2, receptor as analyte
[37] = molecular target: Soluble FcγRIIaR extracellular domain with C-terminal 10×His tag (UniProt P12318); assay: as above
[38] = molecular target: Soluble FcγRIIb extracellular domain with C-terminal 10×His tag (UniProt P31994); assay: SPR; IIb-Fold / IIaR-Fold (FcγRIIb against FcγRIIaR)
[39] = molecular target: Soluble FcγRIIb extracellular domain with C-terminal 10×His tag (UniProt P31994); assay: SPR; KD of WT v16463 / KD of variant
[40] = molecular target: Soluble FcγRIIaR extracellular domain with C-terminal 10×His tag (UniProt P12318); assay: SPR; KD of WT v16463 / KD of variant
[41] = molecular target: Biotinylated FcγRIIb extracellular domain-Fc fusion (human) (UniProt P31994); assay: competition electrochemiluminescence (MSD), antibody on HER2-coated plate, biotinylated FcγRIIb-Fc; competitor FcγRIIaR-Fc at 10x
FcγRIIb [42] = molecular target: FcγRIIb (UniProt P31994); assay: SPR (Protocol 2); selectivity for FcγRIIb against FcγRIIaR
FcγRIIb [43] = molecular target: FcγRIIb (UniProt P31994); assay: SPR (Protocol 2), against wild-type 16463
FcγRIIaR [44] = molecular target: FcγRIIaR (UniProt P12318); assay: SPR (Protocol 2, Biacore 4000), antibody captured on immobilised HER2, FcγR as analyte
FcγRIIb [45] = molecular target: FcγRIIb (UniProt P31994); assay: as above

Variant 27293, Strategy 1 Launching Module 1 (A_G236N_G237A / B_G236D_G237F_S239D_S267V_H268D_Template 1), one-armed trastuzumab antibody
IIaR-Fold vs. Control [1]: 1 fold | IIb-Fold vs. Control [2]: 1 fold | IIb/IIaR Selectivity vs. WT [3]: 11.8 fold | Kd [4]: 8.8 nM | Kd [5]: 3.5 nM | IIaR-Fold vs. WT [6]: 35 fold | IIb-Fold vs. WT [7]: 415 fold | IIb/IIaR Selectivity vs. Control [8]: 1 fold

Variant 16463, wild-type control one-armed trastuzumab antibody with heterodimeric IgG1 Fc
IIaR-fold (fold change in affinity over wild-type) [9]: 1 fold | IIb-fold (fold change in affinity over wild-type) [10]: 1 fold | IIb/IIaR Selectivity (IIb-Fold/IIaR-Fold) [11]: 1

Variant 18370 (S239D), one-armed trastuzumab antibody with heterodimeric IgG1 Fc
IIaR-fold (fold change in affinity over wild-type) [12]: 3.8 fold | IIb-fold (fold change in affinity over wild-type) [13]: 4.39 fold | IIb/IIaR Selectivity (IIb-Fold/IIaR-Fold) [14]: 1.2

v26133 (A_N236I_strat1), one-armed trastuzumab antibody
Kd [15]: 2.5 nM | Kd [16]: 8.3 nM | IIb Selectivity [17]: 15.7 fold | IIb Selectivity Fold wrt Control [18]: 1.3 fold | IIb-Fold [19]: 585 fold | IIaR-fold [20]: 37.3 fold | IIb-Fold wrt Control [21]: 1.4 fold | IIaR-Fold wrt Control [22]: 1.1 fold

Variant 26725 (A_D270K_strat2), one-armed trastuzumab antibody with heterodimeric IgG1 Fc
IIb Selectivity [23]: 12.5 fold | IIaR-fold [24]: 1.9 fold | IIaR-Fold wrt Control [25]: 0.3 fold | IIb-Fold wrt Control [26]: 0.3 fold | IIb Selectivity Fold wrt Control [27]: 0.9 fold | IIb-Fold [28]: 24.1 fold | Kd [29]: 160 nM | Kd [30]: 60 nM

v12 (IIb-specific comparator, symmetrical E233D_G237D_P238D_H268D_P271G_A330R), anti-CD19 (4G7) full-size antibody
Kd (FcγRIIaR [31]): 460 nM | Kd (FcγRIIb [32]): 13 nM | IIb Selectivity (IIb-Fold/IIaR-Fold) (FcγRIIb [33]): 106 fold

v16463, wild-type one-armed trastuzumab antibody (OAA format)
Kd (FcγRIIaR [34]): 310 nM | Kd (FcγRIIb [35]): 1400 nM

v12, IIb-specific comparator with symmetrical E233D_G237D_P238D_H268D_P271G_A330R (antibody)
Kd [36]: 13 nM | Kd [37]: 220 nM | IIb Selectivity [38]: 80.5 fold | IIb-Fold [39]: 112 fold | IIaR-fold [40]: 1.4 fold | ELISA (% of non-competed FcγRIIb signal in presence of 10x FcγRIIa) [41]: 100%

Variant 18372, control without loop replacement (chain B S239D_H268D), one-armed antibody Scaffold 2
IIb/IIaR Selectivity (FcγRIIb [42]): 1.4 | IIb-Fold (fold change in affinity over wild-type) (fold over wild-type) (FcγRIIb [43]): 29.3 | Kd (FcγRIIaR [44]): 17 nM | Kd (FcγRIIb [45]): 39 nM
